# Source: patent US20250127918A1, “SITE-SELECTIVE CONJUGATION OF A PHARMACEUTICAL AGENT TO AN ANTIBODY USING AN AFFINITY PEPTIDE” (priority 2023, published 2025)
# Columns and labels:
# Trastuzumab = biological target: T1, Trastuzumab (Homo sapiens, UniProt P01857, D239E/L241M); experiment: Bioconjugation handle / GLP1 transfer to trastuzumab, analyzed by Q-ToF LC-MS; format: biochemical
# T1 construct: purchased Syd Labs Inc; MedChemExpress LLC; Bio X Cell
# Method: The conversion rate for each reaction was calculated by one of the following methods. Determination by LC-MS: Reported yields based on LC-MS spectra were determined by extracting the total ion current (TIC) spectra of all protein-containing species in the chromatogram utilizing Agilent MassHunter 6.0 software with BioConfirm package. These extracted chromatograms were deconvoluted utilizing a maximum entropy algorithm and abundance of each species determined using total ion count.
# A reaction solution corresponding to 9.0 μg of IgG was taken into a PCR tube and diluted with Tris buffer (100 mM, pH 8.1) to a final volume of 6 μL. […] Afterward, DTT (200 mM in water, 2 μL) was added, and the mixture was further incubated at 37° C. for 1 hour. Finally, the solution was diluted to a volume of 40 μL with a mixture of water and acetonitrile (95:5), and 8 μL of the diluted solution was injected into LC-MS.
# Reactions were performed on a 20 μL scale using 0.2 mL PCR tubes (FIG. 61). First, the electrophile-attached Z33 peptide reagent was dissolved in water to prepare a 2 mg/mL solution. Trastuzumab (MedChemExpress LLC. or Bio X Cell), electrophile-attached Z33 peptide reagent (2 mg/mL), and buffer were added to achieve final concentrations of 10 μM, 200 μM, and values listed in the following table, respectively. If the HEPES was used as a buffer, NaCl solution (4M, 1 uL) was added to the reaction mixture. […] The resulting reaction solution was quenched with a 100 mM glycine buffer of 100 mM Tris buffer and analyzed by LC-MS. Sample preparation for LC-MS analysis was performed in the same manner previously described. […] Therefore, a post-processing step was implemented to remove electrophiles using an Amicon® filter. The reaction mixture was diluted to 200 μL with citrate buffer (100 mM, pH 2.7) and filtered through an Amicon® filter (0.5 mL, 50KMWCO) at 14000 rcf for 7 minutes. […]
# Reactions were performed on a 20 μL scale using 0.2 mL PCR tubes (FIG. 61). […] The resulting reaction solution was quenched with a 100 mM Tris buffer and analyzed by LC-MS (FIG. 53, Table 8).
# [1] = mouse, in vivo, ip
# Method: Each sample was weighted and count in a gamma counter (Wizard2, Perkin Elmer LLC, USA) to get the counts per minutes (cpm) for determining the percentage of injected activity per gram (% IA/g) in each organ. Cpm were decay-corrected by using the following formula: A=A0 e((−(ln2)Δt)/T) with A=decay-corrected cpm, A0=raw cpm, Δt=time difference between the injection and the cpm measurement, and T=half-life of the radionuclide (i.e. 78.41 h for Zr-89).
sequence,measurement,setting,value
FNMQQQRRFYEALHD PNLNHcyEQRNAKIKSI RDD [PEL-21],Light chain total conversion,"Trastuzumab; 20 equivalents, PBS, room temperature, 24 h",12%
same,Light chains modified with the electrophile,"Trastuzumab; hIgG1-2, excess (20 eq.) reagent",less than 2%
same,Modifications incorporated into the heavy chain of Tmab,"Trastuzumab; hIgG1 trastuzumab (1 eq.), peptide 20 eq., after 24 h",up to 99%
same,Time remaining in specific organs,[1],up to 144 hours
